In PMC8281802, “Bacterial Vipp1 and PspA are members of the ancient ESCRT-III membrane-remodeling superfamily” (Cell, 2021):
Substitutions are numbered along the chain they refer to. Names may count otherwise. “And” between values parts separate entries of the source, which are not always exact repeats. Equal values may be shown once.

Legend:
[1] = target: the molecule itself; test: cryo-EM structure; 35 μM Vipp1 mixed with pre-formed rat Dynamin 1 filaments (to keep the ice thick) and vitrified; rings of C11 to C17 symmetry reconstructed
[2] = target: the molecule itself; test: cross-linking; cysteine cross-linking: 5 μM protein in 25 mM Tris-HCl pH 8.4, 50 mM NaCl with CuP or 5 μM MTS-4, 1 h at room temperature; rescue with 10 mM DTT; SDS-PAGE
[3] = target: the molecule itself; test: SEC + other: negative stain EM; filament assembly assay: Sephacryl 16/60 S500 gel filtration in 25 mM Tris-HCl pH 8.4, 50 mM NaCl; void volume, peak 1 and peak 2 analysed by SDS-PAGE and negative stain EM

B1: Vipp1/IM30 from Nostoc punctiforme, full-length (amino acids 1–258) (natural protein, UniProt B2J6D9 1-258, looked up)
chain: MGLFDRIKRVVSSNLNDLVNKAEDPEKMLEQAILEMQEDLVQLRQGVAQAIAAQKRSEKQYNDAQNEINKWQRNAQLALQKGDENLARQALERKKTYTDTSAALKASLDTQSTQVETLKRNLIQLESKISEAKTKKEMLKARITTAKAQEQLQGMVRGMNTSSAMSAFERMEEKVLMQESRAQALGELAGADLETQFAQLEGGSDVDDELAALKAQMLPPATPVTQAQLPPQQETTPAKSNEVVDAELDSLRKQLDQL
notes: Vipp1/IM30, Nostoc punctiforme, UniProt B2J6D9, amino acids 1-258, 28.7 kDa; His6 sits on the MBP moiety and leaves with it on TEV cleavage; also called native Vipp1; WT; not shown: MBP, N-terminal, cleaved; His6, N-terminal, cleaved
stoichiometry N [1]: 84 subunits and 55 subunits to 119 subunits (2×)

B2: Vipp1_(L86C/L193C) (natural protein, Nostoc punctiforme, UniProt B2J6D9 1-258, looked up)
chain: B1 chain with L86C, L193C
notes: Vipp1/IM30, Nostoc punctiforme, UniProt B2J6D9, with the cysteine pair L86C and L193C; Plasmid pOPTM/Vipp1_(L86C/L193C); The legend notes some uncleaved MBP-Vipp1 in the gel; also called L193C and L86C mutants; not shown: MBP, N-terminal, cleaved; His6, N-terminal, cleaved
binding result [2]: binds

B3: Vipp1Δα6_(1–219) (domain or fragment, Nostoc punctiforme, UniProt B2J6D9 1-219, looked up)
chain: MGLFDRIKRVVSSNLNDLVNKAEDPEKMLEQAILEMQEDLVQLRQGVAQAIAAQKRSEKQYNDAQNEINKWQRNAQLALQKGDENLARQALERKKTYTDTSAALKASLDTQSTQVETLKRNLIQLESKISEAKTKKEMLKARITTAKAQEQLQGMVRGMNTSSAMSAFERMEEKVLMQESRAQALGELAGADLETQFAQLEGGSDVDDELAALKAQMLP
notes: Vipp1/IM30, Nostoc punctiforme, UniProt B2J6D9, residues 1-219; lacks the C-terminal extension with helix α6 (aa 220-258); Plasmid pOPTM/Vipp1Δα6_(1-219); not shown: MBP, N-terminal, cleaved; His6, N-terminal, cleaved
binding result [3]: binds
